Measured values from patent EP4386000 (dated 2024).

T1: mouse CD25-his (mouse, UniProt P01590)
T1 chain: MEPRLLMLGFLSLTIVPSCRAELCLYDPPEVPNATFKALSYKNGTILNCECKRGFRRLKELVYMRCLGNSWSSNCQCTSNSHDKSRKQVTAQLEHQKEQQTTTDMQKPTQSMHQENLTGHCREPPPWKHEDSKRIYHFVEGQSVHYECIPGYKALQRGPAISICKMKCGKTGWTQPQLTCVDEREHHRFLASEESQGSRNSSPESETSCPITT

T2: human CD25 on CHO-K1 cells (human, UniProt P01589)
T2 chain: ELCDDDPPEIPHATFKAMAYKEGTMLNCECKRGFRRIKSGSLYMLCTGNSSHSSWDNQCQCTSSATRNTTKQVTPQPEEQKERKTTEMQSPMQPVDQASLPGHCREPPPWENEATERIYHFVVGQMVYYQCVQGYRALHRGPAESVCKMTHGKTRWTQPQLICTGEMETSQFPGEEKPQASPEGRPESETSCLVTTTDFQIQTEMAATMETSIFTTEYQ

T3: human CD25-his (human, UniProt P01589)
T3 chain: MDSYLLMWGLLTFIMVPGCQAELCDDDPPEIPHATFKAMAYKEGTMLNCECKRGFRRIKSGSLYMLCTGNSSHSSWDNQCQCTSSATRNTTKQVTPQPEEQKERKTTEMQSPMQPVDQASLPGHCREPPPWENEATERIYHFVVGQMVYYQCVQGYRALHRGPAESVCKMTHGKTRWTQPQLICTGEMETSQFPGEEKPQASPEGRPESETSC


Experiments:
mouse CD25-his = target: T1, mouse CD25-his; assay: ELISA
[1] = target: T2, human CD25 on CHO-K1 cells; assay: FACS
human CD25-his [2] = target: T3, human CD25-his; assay: ELISA
human CD25-his [3] = target: T3, human CD25-his; assay: SPR, 25C

| Binder | binding result (mouse CD25-his) | further results |
| --- | --- | --- |
| 2046-111H2L1 (2046-111ix) (antibody, V domains shown) VH: DVQLQESGPGLVKPSQSLSLTCTVTGHSITSDYAWNWIRQFPGNKLEWMGYISYSGSTIYNPSLKSRISITRDTSKNQFFLQLNSVTTEDTATYYCARWLLQNYYAMDYWGQGTSVTVSS VL: DVVMTQTPLSLPVSLGDQASISCRSSQSLVHSNGNTYLHWYLRKPGQSPKLLIYKVSNRFSGVPDRFSGSGSGTDFTLKISRVEAEDLGVYFCSQSTHVPLTFGAGTKLELK | no binding | – |
| 2046-2H1L1 (2046-2ix) (antibody, V domains shown) VH: DVQLQESGPGLVKPSQSLSLTCTVTGYSITSDYAWNWIRHFPGNKLEWMGYITYSGSTVYNPSLKSRISITRDTSKNHFFLQLNSVTTEDTATYYCARWLLQIYYAMDYWGQGTSVTVSS VL: DVVMTQTPLSLPVSLGDQASISCRSSQSLVHSNGNTYLHWYLQKPGQSPKLLIYKVSNRFSGVPDRFSGSGSGTDFTLKISRVEAEDLGVYFCSQSTHVPLTFGAGTKLELK | no binding | – |
| 2046-18H1L1 (2046-18ix) (antibody, V domains shown) VH: DVQLQESGPGLVKPSQSLSLTCTVTGYSITSDYAWNWIRQFPGNKLEWMGYISYSGITIYNPSLKSRISITRDTSKNQFFLQLNSVTTEDTATYYCARWLLQIYYAMDYWGQGTSVTVSS VL: DVVMTQTPLSLPVSLGDQASISCSSSQSLVHSNGNTYLHWYLHKPGQSPKLLIYKVSNRFSGVPDRFSGSGSGTDFTLKISRVEAEDLGVYFCSQSTHVPLTFGAGTKLELK | no binding | – |
| 2047-3H8L2 (2047-3ix) (antibody, V domains shown) VH: QVQLKQSGAELVKPGASVKMSCKTSGYTFTDYVISWVKQRTGQGLEWIGEIYPGSGSTYYNEKFKGKATLTADISSNTAYMQLSSLTSEDSAVYFCASINFDYWGHGTTLTVSS VL: DIVMTQSPATLSVTPGDRVSLSCRASQSISDYLHWYQQKSHESPRLLIKYASQSISGIPSRFSGSGSGSDFTLSINSVEPEDVGVYYCQNGHSFPYTFGGGTKLEIK | no binding | – |

Now from value to binder, other results behind:

| binding result (mouse CD25-his) | Binder | further results |
| --- | --- | --- |
| no binding | 2046-36H2L1 (2046-36ix) (antibody, V domains shown) VH: QIQLVQSGPELKKPGETVRISCKASGYTFTTAGMQWVQKMPGKGLKWIGWINTHSGVPKYAEDFKGRFAFSLETSASTAYLQISNLKNEDTATYFCASDYAFGYWGQGTLVTVSA VL: not shown | – |
| no binding | 2046-24H2L1 (2046-24ix) (antibody, V domains shown) VH: DVQLQESGPGLVKPSQSLSLTCTVTGYSITSDYAWNWIRQFPGNKLEWMGYISYGGTTIYNPSLKSRISITRDTSKNQFFLQLNSVTTEDTATYYCARWLLQNYYAMDYWGQGTSVTVSS VL: DVVMTQTPLSLPVSLGDQASISCRSSQSLVHSNGNTYLHWYLQKPGQSPKVLIYKVSNRFSGVPDRFSGSGSGTDFTLKISRVEAEDLGVYFCSQNTHVPLTFGAGTKLELK | – |
| no binding | 2046-61H1L2 (2046-61ix) (antibody) chain 1: DVQLQESGPGLVKPSQSLSLTCTVTGYSITSDYAWNWIRQFPGNKLEWMGYISYSGGTIYNPSLKSRISITRDTSKNQFFLQLNSVTTEDTATYYCARWLLQNYYAMDYWGQGTSVTVSS chain 2: DVVMTQTPLSLPVSLGDQASISCRSSQSLVHSNGNTYLHWNLQKPGQSPKLLIYKVSNRFSGVPDRFSGSGSGTDFTLKISRVEAEDLGVYFCSQSTHVPLTFSAGTKLELK | EC50 [1]: 0.00114 µg/mL; EC50 (human CD25-his [2]): 0.144 µg/mL; Kd (human CD25-his [3]): 9.44 nM |
| no binding | 2047-10H1L2 (2047-10ix) (antibody, V domains shown) VH: QVQLQQSGPELVRPGVSVKISCKGSGYTFTDYAMHWVKQSHAKSLEWIGVISTYNGNTNYNQKFKGKATMTVDKSSSTAYMELARLTSEDSAIYYCARSYGNYPFDYWGQGTTLTVSS VL: DIKMTQSPSSMYASLGERVTITCKASQDINSYLSWFQQKPGKSPKTLIYRANRLVDGVPSRFSGSGSGQDYSLTISSLEYEDMGIYYCLQYDEFPYTFGGGTKLEIK | – |
